Drawing on US7452534, this text covers MLR IL-2 Production (IC50) and MLR Proliferation (IC50) for one substance.

The assay has as its target human CD4 on cells (human) (UniProt P01730). Put plainly: cell-based or functional assay.

In turn, “CE9γ4λK, chimeric anti-CD4 antibody with human gamma 4 heavy chain constant domain and human kappa light chain constant region” registered an MLR IL-2 Production (IC50) of 0.02 µg/mL and an MLR Proliferation (IC50) of 0.02 µg/mL.
